{"source": "patent US20140017790A1", "about": "“CONTROL AGENT FOR CONTROLLING UNDIFFERENTIATED STATE AND USE THEREOF” (RIKEN, priority 2011, published 2014)", "molecules": {"B1": {"name": "CCL2: mouse recombinant CCL2 (MCP-1, #479-JE-010, R&D Systems); in Examples 1, 3, 4(1), 5 mouse CCL2 (SEQ ID NO: 3) overexpressed from Ccl2 expression vector (protein, listed as Mus musculus)", "chain": "MQVPVMLLGLLFTVAGWSIHVLAQPDAVNAPLTCCYSFTSKMIPMSRLESYKRITSSRCPKEAVVFVTKLKREVCADPKKEWVQTYIKNLDRNQMRSEPTTLFKTASALRSSAPLNVKLTRKSEANASTTFSTTTSSTSVGVTSVTVN"}}, "format_in_all_cases": "cell-based", "key": {"[1]": {"tested_on": "STAT3", "assay": "Western blotting, phosphorylation of STAT3 in mouse iPS cells", "settings": "CCL2 overexpressed, 24 hours, relative to negative control", "procedure": "The mouse iPS cells transfected with the Ccl2 expression vector were cultured for 24 hours in the same manner as in Example 1. After the culture, the mouse iPS cells were washed with PBS, and then were suspended in 100 μl of a mammalian m-PER lysis buffer. The suspension was passed through a 26-gauge needle for 10 minutes to homogenize the cells. Then, the suspension was centrifuged at 13,000 rpm and 4° C. for 5 minutes, and the supernatant was collected. The protein concentration in the supernatant was measured using a Pierce (registered trademark) BCA Protein assay (trade name, Thermo Scientific). Next, the supernatant was subjected to Western blotting to detect a target protein. […] Then, luminescence on the membrane was detected using a Fuji LAS-3000 luminescent image analyzer.\nAs the primary antibody, an anti-phosphorylated STAT3 antibody (anti-pSTAT3 antibody, commercially available from CST, #9145) was used for the phosphorylated STAT3 (pSTAT3), an anti-STAT3 antibody (CST, #9132) was used for the STAT3 protein, and an anti-GAPDH antibody (Santa Cruz Biotechnology Inc, #25778) was used for GAPDH, which is an expression control. […] Then, the ratio of the phosphorylated STAT3 to the non-phosphorylated STAT3 (pSTAT3/STAT3) was determined. […]"}, "[2]": {"tested_on": "ERK1/2", "assay": "Western blotting, phosphorylation of ERK1/2 in mouse iPS cells", "settings": "CCL2 overexpressed, relative to negative control", "procedure": "The mouse iPS cells transfected with the Ccl2 expression vector were cultured for 24 hours in the same manner as in Example 1. After the culture, the mouse iPS cells were washed with PBS, and then were suspended in 100 μl of a mammalian m-PER lysis buffer. The suspension was passed through a 26-gauge needle for 10 minutes to homogenize the cells. Then, the suspension was centrifuged at 13,000 rpm and 4° C. for 5 minutes, and the supernatant was collected. The protein concentration in the supernatant was measured using a Pierce (registered trademark) BCA Protein assay (trade name, Thermo Scientific). Next, the supernatant was subjected to Western blotting to detect a target protein. Specifically, first, the supernatant (total protein: 10 μg) was applied to a Novex Gel electrophoresis system with 4%-12% Bis-Tris gels, and was blotted on a nitrocellulose membrane. Then, the membrane was incubated with a primary antibody against the target protein. After washing the membrane, the membrane was incubated with a labeled secondary antibody labeled with horseradish peroxidase, and a color-developing reaction was caused using a coloring reagent (trade name: ECL plus, GE Healthcare). Then, luminescence on the membrane was detected using a Fuji LAS-3000 luminescent image analyzer. […]"}, "[3]": {"tested_on": "mouse ES cells", "assay": "quantitative RT-PCR of undifferentiated marker genes in mouse ES cells", "settings": "LIF 1000 units/ml, CCL2 500 ng/ml", "procedure": "A PrimeScript RT-PCR Kit (trade name, TAKARA BIO INC.), an ABI 7500 Fast real time PCR system (trade name, Applied BioSystems), and a SYBR (registered trademark) Premix Ex Taq (trade name, TAKARA BIO INC.) were used in accordance with their protocols. PCR was carried out by conducting 40 cycles of treatment with a treatment at 94° C. for 5 second and at 62.5° C. for 20 seconds as 1 cycle. The expression level of each gene was calculated by normalizing the relative amount of mRNA in the gene to Gapdh mRNA according to the 2^−ΔΔ^CT method (Thomse R, Solvsten C A, Linnet T E, et al., Analysis of qPCR data by converting exponentially related Ct values into linearly related XO values. J Bioinform Comput Biol 2010: 8: 885-900.).\n[…] Furthermore, as a negative control, the expression levels of the undifferentiated marker genes were determined in the same manner regarding the mouse ES […] Then, the fold changes in the expression level relative to the negative control were calculated.\nFIG. […] The vertical axis indicates the fold change (-fold), and the horizontal axis indicates the examined undifferentiated marker genes. […] In the former case (open bar), the concentration of the LIF in the medium was 1000 units/ml and the concentration of the CCL2 in the medium was 500 ng/ml. […]"}, "[4]": {"tested_on": "human iPS cells", "assay": "differentiation of EBs to myocardial cells, morphology and Tropomyosin immunostaining", "settings": "10th day from the plating; CCL2(+)/LIF(+) or CCL2(-)/bFGF(+) 5 ng/ml", "description": "It has been reported that, in general, according to the spontaneous differentiation-inducing method used in the above item (1), differentiation into myocardial cells is more liable to occur. Thus, regarding the cells on the 10th day from the plating in the above item (1), differentiation into myocardial cells was examined.\nThe morphology of the cells was examined with a microscope. Furthermore, they were immunostained with a Tropomyosin, which is a marker for myocardial cells. Also, culture of the cells, observation of the morphology, and staining were carried out in the same manner as in the above using a medium to which bFGF (5 ng/ml) has been added instead of the CCL2 and LIF.\nThe photographs in FIG. 19 show the morphologies of the cells on the 10th day from the plating of EB. […] Furthermore, in FIGS. 19A and 19B, the photographs on the left show the cell morphologies, and the photographs on the right show the stained cells. In the black and white photographs of FIG. 19, the stained portions are seen as light gray."}, "[5]": {"tested_on": "human iPS cells", "assay": "qRT-PCR of undifferentiated marker genes, feeder free versus feeder culture of human iPS cells", "settings": "feeder free with CCL2 and LIF, no bFGF, relative to feeder conditions with bFGF", "procedure": "Specifically, human iPS cells were cultured under feeder conditions where bFGF was added and the CCL2 was not added, and under feeder free conditions where bFGF was not added and the CCL2 and LIF were added. Total RNAs then were extracted, and the expressions of undifferentiated marker genes were examined by the qRT-PCR. The culture under the feeder conditions was carried out in the same manner as in Example 8. The culture under the feeder free conditions was carried out in the same manner as in Example 12. Then, assuming that the expression level under the feeder condition was 1, the relative value with respect to this value was calculated as the fold change in expression level under the feeder free conditions.\nFIG. 21 is a graph showing the fold changes in the expression of the undifferentiated marker genes in the human iPS cells. The vertical axis indicates the fold change (-fold), and the horizontal axis indicates the examined undifferentiated marker genes. The open bars show the results obtained under the feeder free conditions, and the solid bars show the results obtained under the feeder conditions."}}, "data": [{"molecule": "B1", "values": [{"measurement": "ratio of phosphorylated STAT3 to non-phosphorylated STAT3 (pSTAT3/STAT3)", "setting": "[1]", "value": "increased"}, {"measurement": "phosphorylation of ERK1/2 (pERK1/2/ERK1/2)", "setting": "[2]", "value": "not promoted"}, {"measurement": "expression of the Klf4 gene, fold change relative to negative control", "setting": "[3]", "value": "increased markedly"}, {"measurement": "expression of the Tbx3 gene, fold change relative to negative control", "setting": "[3]", "value": "increased markedly"}, {"measurement": "cell morphology of EBs, differentiation into myocardial cells", "setting": "[4]", "value": "most of them exhibited myocardial cell-like morphology"}, {"measurement": "staining with Tropomyosin (marker for myocardial cells)", "setting": "[4]", "value": "entirely stained red"}, {"measurement": "expressions of the undifferentiated marker genes, fold change", "setting": "[5]", "value": "comparable"}]}]}
